Test results taken from publication PMC11703243.

Key:
[1] = molecular target: Alexa Fluor 488-labeled BAX^WT (human) (UniProt Q07812); assay: SEC
[2] = molecular target: BAX, recombinant human, wild type (human) (UniProt Q07812); assay: SEC

Substance | stoichiometry N [1] | stoichiometry N [2]
Alexa Fluor 488-labeled BAX^WT (from UniProt Q07812 1-192) (natural protein) | 2 | –
BAX, recombinant human, wild type (from UniProt Q07812 1-192) (natural protein) | – | 2
